In patent US20180311371A1 (Hoffmann-La Roche, published 2018):

How the values were obtained:
[1] = biological target: T1, human TPBG (trophoblast glycoprotein), full length, cell surface expressed (human, UniProt Q13641 32-420); assay: cell-based or functional assay
T1 sequence: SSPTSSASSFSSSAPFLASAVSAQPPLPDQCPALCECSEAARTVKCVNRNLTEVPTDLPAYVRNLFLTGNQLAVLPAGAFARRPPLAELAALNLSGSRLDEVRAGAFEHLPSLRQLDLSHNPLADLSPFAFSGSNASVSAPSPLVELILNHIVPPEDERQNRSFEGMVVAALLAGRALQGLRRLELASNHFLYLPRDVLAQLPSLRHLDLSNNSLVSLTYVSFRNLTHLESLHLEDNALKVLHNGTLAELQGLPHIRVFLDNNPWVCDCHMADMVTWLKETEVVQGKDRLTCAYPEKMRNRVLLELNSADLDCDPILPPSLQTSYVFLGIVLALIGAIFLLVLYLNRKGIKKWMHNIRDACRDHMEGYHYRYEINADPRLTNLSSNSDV

[2] = biological target: T1, human TPBG (trophoblast glycoprotein), …; assay: cell-based or functional assay; remark: listed apart in the source
[3] = biological target: T2, huTPBG (recombinant human TPBG immobilised on the Biacore chip) (human, UniProt Q13641 32-355, limits assumed); assay: SPR Biacore T200; huTPBG amine-coupled, Fab injected
T2 construct: also called human TPBG antigen
T2 sequence: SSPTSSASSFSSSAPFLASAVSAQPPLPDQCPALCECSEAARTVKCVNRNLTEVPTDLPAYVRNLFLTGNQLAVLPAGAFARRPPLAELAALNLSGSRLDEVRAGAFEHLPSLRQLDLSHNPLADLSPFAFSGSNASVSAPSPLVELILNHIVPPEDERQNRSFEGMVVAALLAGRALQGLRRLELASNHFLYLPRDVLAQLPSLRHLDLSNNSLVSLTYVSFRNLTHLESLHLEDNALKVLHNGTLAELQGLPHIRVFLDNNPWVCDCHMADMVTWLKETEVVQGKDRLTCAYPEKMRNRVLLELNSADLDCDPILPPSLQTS

[4] = biological target: T3, minipig TPBG extracellular domain, His6Avi, biotinylated (minipig, biotinylated); assay: ELISA; biotinylated TPBG-AviHis on streptavidin plate; Fab titrated from 2 µg/ml
T3 construct: also called mpTPBG; minipig TPBG-AviHis
T3 chain: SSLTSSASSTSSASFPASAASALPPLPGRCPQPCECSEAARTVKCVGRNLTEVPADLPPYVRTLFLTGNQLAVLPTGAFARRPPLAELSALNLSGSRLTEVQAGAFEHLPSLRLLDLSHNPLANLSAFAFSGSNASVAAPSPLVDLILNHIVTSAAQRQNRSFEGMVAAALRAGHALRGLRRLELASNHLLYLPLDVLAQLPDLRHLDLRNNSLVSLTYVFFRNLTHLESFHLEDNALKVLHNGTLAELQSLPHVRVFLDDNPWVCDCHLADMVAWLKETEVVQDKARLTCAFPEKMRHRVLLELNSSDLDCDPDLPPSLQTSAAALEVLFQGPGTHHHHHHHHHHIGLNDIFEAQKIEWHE

[5] = biological target: T4, cynomolgus TPBG extracellular domain, His6Avi, biotinylated (cynomolgus, biotinylated); assay: as above
T4 construct: also called cyTPBG; cyno TPBG-AviHis
T4 chain: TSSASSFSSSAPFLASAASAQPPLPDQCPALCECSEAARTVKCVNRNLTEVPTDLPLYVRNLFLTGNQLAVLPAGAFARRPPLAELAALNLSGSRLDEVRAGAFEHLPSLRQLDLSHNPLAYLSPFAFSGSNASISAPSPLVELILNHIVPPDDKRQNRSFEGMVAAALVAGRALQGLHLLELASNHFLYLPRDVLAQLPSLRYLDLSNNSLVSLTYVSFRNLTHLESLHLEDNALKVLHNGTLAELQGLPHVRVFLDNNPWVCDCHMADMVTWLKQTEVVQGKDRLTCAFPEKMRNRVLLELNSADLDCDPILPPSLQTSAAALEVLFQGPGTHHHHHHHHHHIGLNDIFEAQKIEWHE

[6] = biological target: T5, human TPBG extracellular domain, His6Avi, biotinylated (human, biotinylated); assay: as above
T5 construct: also called huTPBG; human TPBG-AviHis
T5 chain: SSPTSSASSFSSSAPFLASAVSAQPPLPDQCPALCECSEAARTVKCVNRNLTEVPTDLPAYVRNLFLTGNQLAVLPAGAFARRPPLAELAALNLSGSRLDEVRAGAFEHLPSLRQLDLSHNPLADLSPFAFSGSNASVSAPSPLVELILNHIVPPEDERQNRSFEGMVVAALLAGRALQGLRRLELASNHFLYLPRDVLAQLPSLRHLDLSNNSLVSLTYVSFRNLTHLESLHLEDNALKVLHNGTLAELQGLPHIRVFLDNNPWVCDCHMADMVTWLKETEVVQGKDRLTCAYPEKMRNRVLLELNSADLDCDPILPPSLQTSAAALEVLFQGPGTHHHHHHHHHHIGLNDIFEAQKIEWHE

[7] = biological target: T1, human TPBG (trophoblast glycoprotein), …; assay: cell ELISA on MCF7 cells; titrated from 5 µg/ml
[8] = biological target: T1, human TPBG (trophoblast glycoprotein), …; assay: cell-based or functional assay; remark: listed apart in the source

B1: anti-TPBG antibody 091, Fab fragment (Fab, V domains shown)
VH: EVHLLESGGGLVHPGGSLRLSCAASGFTFRSDAMHWVRQAPGKGLEWVSGVSGSGGSPYYADSVKGRFTISRDDSKTTLYLQMNSLRAEDTAVYYCATGGSIAGSYYYYPMDVWGQGTTVTVSS
VL: DIQMTQSPSSLSASVGDRVTITCQASQDISNYLNWYQQKPGKAPKLLIYAASTLQIGVPSRFSGSGSGTDFTFTISSLQPEDFATYYCQQANSFPLTFGGGTKVEIK
notes: also called Fab2
- EC50 cytotoxicity, Fab-PE sandwich construct, H1975, replicate 1 [1]: 0.166 nM
- EC50 cytotoxicity, Fab-PE sandwich construct, H1975, replicate 2 [1]: 0.129 nM
- EC50 cytotoxicity, Fab-PE sandwich construct, H1975, replicate 3 [1]: 0.182 nM
- EC50 cytotoxicity, Fab + anti-kappa-Fab-PE, CHO-K1/human TPBG, replicate 1 [2]: 0.23 nM
- EC50 cytotoxicity, Fab + anti-kappa-Fab-PE, CHO-K1/human TPBG, replicate 2 [2]: 0.24 nM
- Kd [3]: 0.0558 nM
- koff [3]: 2.72e-05 s⁻¹
- kon [3]: 487000 M⁻¹ s⁻¹
- EC50 [4]: 0.0618 mg/L
- EC50 [5]: 1.23 mg/L
- EC50 [6]: 0.0277 mg/L
- EC50 [7]: 0.014 mg/L
- internalization after 0.5 h, MCF7 cells [8]: 16%
- internalization after 1.0 h, MCF7 cells [8]: 33%
- internalization after 2.0 h, MCF7 cells [8]: 42%
